Test results: paper PMC7522779

Target: Pex14p-S266D, Gal4p fusion protein for yeast two-hybrid (S. cerevisiae) (UniProt P53112)
Assay: two-hybrid; liquid ß-galactosidase assay with 2-nitrophenyl β-D-galactopyranoside; GAL4 BD and AD fusions in strain PCY2 pex14Δ; triplicate measurements of three independent transformants

Sequence of UniProt P53112 (P53112 whole entry S266D, the tested form may be a part): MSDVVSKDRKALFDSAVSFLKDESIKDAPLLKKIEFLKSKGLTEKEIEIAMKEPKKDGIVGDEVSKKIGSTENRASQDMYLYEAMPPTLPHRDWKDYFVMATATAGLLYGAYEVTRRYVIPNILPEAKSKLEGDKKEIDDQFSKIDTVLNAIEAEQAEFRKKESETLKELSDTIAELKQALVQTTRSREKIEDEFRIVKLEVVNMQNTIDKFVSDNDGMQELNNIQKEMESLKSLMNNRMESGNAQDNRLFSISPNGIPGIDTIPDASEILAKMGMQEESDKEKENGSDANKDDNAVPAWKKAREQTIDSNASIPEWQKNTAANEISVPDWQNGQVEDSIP

binding as percent of wild-type level (ß-galactosidase activity) (% of wild-type levels): < 50
Substance: Pex13p, Gal4p fusion protein for yeast two-hybrid (from UniProt P80667 1-386) (natural protein)
